B1: HP0377 (Helicobacter pylori thiol oxidoreductase), amino acids 33-221 (domain or fragment, Helicobacter pylori strain 26695, UniProt O25140 33-221, looked up)
chain: LDENLLSSGSQSSKELNDERDNIDKKSYAGLEDVFSDNKSISPNDKYMLLVFGRNGCSYCERFKKDLKNVKELRDYIKEHFSAYYVNISYSKEHDFKVGDKNNEKEIKMSTEELAQIYAVQSTPTIVLSDKTGKTIYELPGYMPSTQFLAVLEFIGDGKYQDTKDDEDLTKKLKAYIKYKTNLSKSKSN
notes: HP0377 (CcmG family thiol oxidoreductase), Helicobacter pylori 26695, amino acids 33-221 of the native HP0377; the variant previously analysed by Yoon et al. [16]; also called 33-221 variant of HP0377; N-terminal-shortened HP0377; source: E. coli, purified
B2: HP0377 (Helicobacter pylori thiol oxidoreductase), amino acids 25-187 (domain or fragment, Helicobacter pylori strain 26695, UniProt O25140 25-187, looked up)
chain: CKSNNKDKLDENLLSSGSQSSKELNDERDNIDKKSYAGLEDVFSDNKSISPNDKYMLLVFGRNGCSYCERFKKDLKNVKELRDYIKEHFSAYYVNISYSKEHDFKVGDKNNEKEIKMSTEELAQIYAVQSTPTIVLSDKTGKTIYELPGYMPSTQFLAVLEFI
notes: HP0377 (CcmG family thiol oxidoreductase), Helicobacter pylori 26695, amino acids 25-187 of the native HP0377; also called 25-187 variant of HP0377; C-terminal-truncated HP0377; source: E. coli, purified

Key:
[1] = biological target: apocytochrome c (HP1227) (Helicobacter pylori) (UniProt O25825); experiment: SEC; lysates of E. coli overexpressing HP0377 CSYA and HP1227 mixed, overnight at 37°C, Ni IMAC, then ENrich SEC70 in 20 mM Tris pH 8, 150 mM NaCl; fractions on SDS-PAGE with or without DTT; covalent (disulfide) complex
[2] = biological target: the molecule itself; experiment: cross-linking; glutaraldehyde (0.001-0.1%) on purified truncated HP0377 at 2.5 mg/ml, SDS-PAGE

Row | Molecule | stoichiometry N (HP0377 per apocytochrome c) [1] | stoichiometry N [2]
1 | HP0377 with the CSYC motif changed to CSYA (C92A), amino acids 25-221, His6 fusion (from UniProt O25140 25-221) (enzyme) | 2 | –
2 | B1 | – | 2
3 | B2 | – | 2

— PMC5909903, “Impact of selected amino acids of HP0377 (Helicobacter pylori thiol oxidoreductase) on its functioning as a CcmG (cytochrome c maturation) protein and Dsb (disulfide bond) isomerase” (PLoS ONE, 2018)
